# B1: lactoferrin: host-iron sequestration protein; lactoferrin from human milk, MilliporeSigma (protein, UniProt P02788 20-710, looked up)
# Lactotransferrin: GRRRSVQWCAVSQPEATKCFQWQRNMRKVRGPPVSCIKRDSPIQCIQAIAENRADAVTLDGGFIYEAGLAPYKLRPVAAEVYGTERQPRTHYYAVAVVKKGGSFQLNELQGLKSCHTGLRRTAGWNVPIGTLRPFLNWTGPPEPIEAAVARFFSASCVPGADKGQFPNLCRLCAGTGENKCAFSSQEPYFSYSGAFKCLRDGAGDVAFIRESTVFEDLSDEAERDEYELLCPDNTRKPVDKFKDCHLARVPSHAVVARSVNGKEDAIWNLLRQAQEKFGKDKSPKFQLFGSPSGQKDLLFKDSAIGFSRVPPRIDSGLYLGSGYFTAIQNLRKSEEEVAARRARVVWCAVGEQELRKCNQWSGLSEGSVTCSSASTTEDCIALVLKGEADAMSLDGGYVYTAGKCGLVPVLAENYKSQQSSDPDPNCVDRPVEGYLAVAVVRRSDTSLTWNSVKGKKSCHTAVDRTAGWNIPMGLLFNQTGSCKFDEYFSQSCAPGSDPRSNLCALCIGDEQGENKCVPNSNERYYGYTGAFRCLAENAGDVAFVKDVTVLQNTDGNNNEAWAKDLKLADFALLCLDGKRKPVTEARSCHLAMAPNHAVVSRMDKVERLKQVLLHQQAKFGRNGSDCPDKFCLFQSETKNLLFNDNTECLARLHGKTTYEKYLGPQYVAGITNLKKCSTSPLLEACEFLRK
# What was measured:
# SARS-CoV-2 [1] = assay type: cell-based; settings: 400 μg/ml, 48 hours after infection, vs DMSO alone
# SARS-CoV-2 [2] = assay type: cell-based; settings: 400 μg/ml, H23-hACE2, MOI 0.01, 48 hpi
molecule,measurement,setting,value
B1,decrease of N-protein RNA copies (qPCR),SARS-CoV-2 [1],28.0%
same,"effect on SARS-CoV-2 concentration (TCID50), words",SARS-CoV-2 [2],ineffective

# From patent US20240307370A1, “SIGMA RECEPTOR LIGANDS FOR TREATING SARS-COV-2 INFECTION” (University of Florida Research Foundation, Incorporated, priority 2021, published 2024)
